These results are taken from patent US20170342144A1 (Sanofi, published 2017).

Sequences and labels used below:
B1: S30E (antibody, V domains shown)
VH: QVQLVQSGAEVKKPGSSVKVSCKASGYTFESNVISWVRQAPGQGLEWMGGVIPIVDIANYAQRFKGRVTITADESTSTTYMELSSLRSEDTAVYYCASTLGLVLDAMDYWGQGTLVTVSS
VL: ETVLTQSPGTLSLSPGERATLSCRASQSLGSSYLAWYQQKPGQAPRLLIYGASSRAPGIPDRFSGSGSGTDFTLTISRLEPEDFAVYYCQQYADSPITFGQGTRLEIK
notes: GC1008 IgG4 variant
B2: I54T (antibody, V domains shown)
VH: B1 VH with E30S, I54T
VL: B1 VL
notes: GC1008 IgG4 variant
B3: N32E (antibody, V domains shown)
VH: B1 VH with E30S, N32E
VL: B1 VL
notes: GC1008 IgG4 variant
B4: S31W (antibody, V domains shown)
VH: B1 VH with E30S, S31W
VL: B1 VL
notes: GC1008 IgG4 variant
B5: I54W (antibody, V domains shown)
VH: B1 VH with E30S, I54W
VL: B1 VL
notes: GC1008 IgG4 variant
B6: I54F (antibody, V domains shown)
VH: B1 VH with E30S, I54F
VL: B1 VL
notes: GC1008 IgG4 variant
B7: S30W (antibody, V domains shown)
VH: B1 VH with E30W
VL: B1 VL
notes: GC1008 IgG4 variant
B8: V55F (antibody, V domains shown)
VH: B1 VH with E30S, V55F
VL: B1 VL
notes: GC1008 IgG4 variant
B9: N32K (antibody, V domains shown)
VH: B1 VH with E30S, N32K
VL: B1 VL
notes: GC1008 IgG4 variant
B10: Y27H (antibody, V domains shown)
VH: B1 VH with Y27H, E30S
VL: B1 VL
notes: GC1008 IgG4 variant
B11: I52A (antibody, V domains shown)
VH: B1 VH with E30S, I52A
VL: B1 VL
notes: GC1008 IgG4 variant
B12: I52C (antibody, V domains shown)
VH: B1 VH with E30S, I52C
VL: B1 VL
notes: GC1008 IgG4 variant

Substitutions are numbered along the chain they refer to.

T3 sequence (P01137 279-390 limits assumed): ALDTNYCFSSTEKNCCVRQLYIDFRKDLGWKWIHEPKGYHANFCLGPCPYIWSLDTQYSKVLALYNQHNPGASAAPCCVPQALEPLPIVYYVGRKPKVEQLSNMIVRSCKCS

The first assay deals with T1, human TGFβ2 (human, UniProt P61812 303-414).
T1 construct: also called TGFβ2 homodimer
T1 sequence: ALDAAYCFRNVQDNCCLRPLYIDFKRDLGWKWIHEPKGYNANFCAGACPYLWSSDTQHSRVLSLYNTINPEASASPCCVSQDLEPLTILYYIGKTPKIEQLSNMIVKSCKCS
As to the kind of experiment: Biacore, 3.33-90 nM, 1:1 global fit, vs wt GC1008. On the procedure: (§1) In FIG. 6C, seventeen mutants were selected and scaled up to produce sufficient amount of purified protein for KD (equilibrium constant=kd/ka) analysis by Biacore. Multiple concentrations (90, 30, 10 and 3.33 nM) were used in duplicate on the 150 RU level TGFβ1, 2, and 3 immobilized surfaces. KD was calculated using global curve fitting analysis for a 1-to-1 Langmuir binding model. The experimental data from all four concentrations were used for calculation except for I54N and I54R mutants, where only the top 2 concentrations were used. The fold changes in KD were compared to the fold changes in kd (off rate) presented in FIG. 6B, and a heat map was generated for visualization. Similar fold changes were observed from the two data sets, confirming the validity of using kd as a parameter for screening of 155 single mutants as shown in FIG. 6B.
In general terms: Surface plasmon resonance follows binding to a sensor surface in real time, without labels.
With B1, the “KD mutant/KD wt” value came out at 1.6.

B2: the “KD mutant/KD wt” value is 2.1.

Turning to B3, the “KD mutant/KD wt” value turned out to be 0.8.

Turning to B4, the “KD mutant/KD wt” value came to 1.3.

On to B5, for which the “KD mutant/KD wt” value was determined as 1.4.

As to B6, the “KD mutant/KD wt” value stood at 0.6.

With B7, the “KD mutant/KD wt” value is 0.4.

B8: the “KD mutant/KD wt” value worked out at 0.6.

For the molecule B9, the “KD mutant/KD wt” value came to 2.6.

As to B10, the “KD mutant/KD wt” value worked out at 1.3.

In the next assay the target is T2, human TGFβ3 (human, UniProt P10600 301-412).
T2 sequence: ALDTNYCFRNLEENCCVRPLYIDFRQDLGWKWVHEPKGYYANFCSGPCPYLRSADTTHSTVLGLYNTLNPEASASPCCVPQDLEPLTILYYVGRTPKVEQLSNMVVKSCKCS
As to the kind of experiment: Biacore, 3.33-90 nM, 1:1 global fit, vs wt GC1008. How it is done:
as §1
With B1, the “KD mutant/KD wt” value stood at 0.8.

As to B2, the “KD mutant/KD wt” value was 3.2.

Consider B3, for which the “KD mutant/KD wt” value is 1.

Consider B4, for which the “KD mutant/KD wt” value turned out to be 1.3.

In the case of B5, the “KD mutant/KD wt” value worked out at 3.1.

Consider B6, for which the “KD mutant/KD wt” value amounted to 1.2.

As for B7, the “KD mutant/KD wt” value turned out to be 0.3.

On to B8, for which the “KD mutant/KD wt” value was determined as 0.8.

With B9, the “KD mutant/KD wt” value came out at 3.7.

As for B10, the “KD mutant/KD wt” value is 1.1.

A further assay addresses T3, human TGFβ1 (human, UniProt P01137 279-390).
T3 construct: also called TGFβ1 homodimer
Nature of the assay: Biacore, 3.33-90 nM, 1:1 global fit, vs wt GC1008. How it is done:
as §1
For the molecule B1, the “KD mutant/KD wt” value came out at 1.5.

Take B2: the “KD mutant/KD wt” value was determined as 2.1.

Turning to B3, the “KD mutant/KD wt” value was 1.

Take B4: the “KD mutant/KD wt” value was found to be 1.3.

Take B5: the “KD mutant/KD wt” value amounted to 1.7.

Turning to B6, the “KD mutant/KD wt” value was found to be 1.3.

With B7, the “KD mutant/KD wt” value came out at 0.7.

In the case of B8, the “KD mutant/KD wt” value worked out at 1.

Consider B9, for which the “KD mutant/KD wt” value came to 4.

On to B10, for which the “KD mutant/KD wt” value turned out to be 1.2.

Another assay deals with T1, human TGFβ2. As to the kind of experiment: Biacore off-rate vs wt GC1008. The source says: (§2) Plasmids encoding either the GC1008 heavy chain or light chain were used as a template in PCR-based mutagenesis reactions. Mutations to the encoding DNA were made to create 155 single amino acid substitutions of the encoded heavy chain amino acid sequence and one single amino acid substitution of the encoded light chain amino acid sequence. A QuikChange® Lightning Site-Directed Mutagenesis kit (Agilent Technologies, Santa Clara Calif.) was used according to the manufacturer's instructions to create DNA mutations using a set of forward and reverse primers, either designed for a specific amino acid or for all 20 amino acids with a degenerate codon (NNK). After sequencing confirmation, identified mutant DNA was paired with a wild-type light or heavy chain DNA for transfection into an Expi293F™ host cell suspension (Life Techonologies Corp., Grand Island, N.Y.). At 4 days post-transfection, conditioned media (1 mL) was harvested and purified using a 1 mL Protein A PhyTip® column (PhyNexus, Inc., San Jose, Calif.) and a PureSpeed™ 12-channel pipette (Rainin Instrument LLC, Oakland, Calif.). Purified variant antibody samples were analyzed in duplicate on a Biacore® 3000 (GE Healthcare) at 50 nM concentrations, using the 100 RU level TGFβ1, 2, and 3 immobilized surfaces. The off-rate (kd) of the variants was divided by the kd of the wild-type control to obtain the fold change in the kd. […] A heat map was generated to visualize the results. Variants that completely lost affinity for TGFβ were shown in red without numbers.
In turn, B1 had a kd mutant/kd wt of 1.4.

As for B2, the kd mutant/kd wt was 1.3.

Take B3: the kd mutant/kd wt amounted to 0.8.

B4 yielded a kd mutant/kd wt of 1.4.

As for B5, the kd mutant/kd wt turned out to be 1.2.

In turn, B6 came in with a kd mutant/kd wt of 0.7.

B7 yielded a kd mutant/kd wt of 0.4.

Molecule B8 gave a kd mutant/kd wt of 0.9.

Molecule B9 displayed a kd mutant/kd wt of 1.4.

The molecule B10 gave a kd mutant/kd wt of 1.4.

Another assay deals with T2, human TGFβ3. As to the kind of experiment: Biacore off-rate vs wt GC1008.
From the text: as §2
Consider B1, for which the kd mutant/kd wt was found to be 1.1.

With B2, the kd mutant/kd wt turned out to be 1.7.

Molecule B3 showed a kd mutant/kd wt of 0.7.

B4: the kd mutant/kd wt amounted to 1.6.

On to B5, for which the kd mutant/kd wt was found to be 1.7.

With B6, the kd mutant/kd wt was found to be 1.2.

B7 showed a kd mutant/kd wt of 0.3.

B8 registered a kd mutant/kd wt of 1.2.

On to B9, for which the kd mutant/kd wt turned out to be 1.8.

The molecule B10 gave a kd mutant/kd wt of 1.4.

For the next assay, the target named is T3, human TGFβ1. Nature of the assay: Biacore off-rate vs wt GC1008.
From the text: as §2
The molecule B1 displayed a kd mutant/kd wt of 1.2.

Molecule B2 displayed a kd mutant/kd wt of 2.1.

The molecule B3 showed a kd mutant/kd wt of 0.6.

With B4, the kd mutant/kd wt amounted to 1.7.

In turn, B5 showed a kd mutant/kd wt of 2.

Consider B6, for which the kd mutant/kd wt amounted to 1.3.

Molecule B7 showed a kd mutant/kd wt of 0.7.

B8 returned a kd mutant/kd wt of 1.2.

On to B9, for which the kd mutant/kd wt came to 2.7.

The molecule B10 displayed a kd mutant/kd wt of 1.5.

A further assay concerns the target T1, human TGFβ2. Nature of the assay: Biacore, immobilised TGFβ.
With B11, the binding result is listed as “no binding (tested: 50 nM)”.

In the case of B12, the binding result is reported as “no binding (tested: 50 nM)”.

The target of the next assay is T2, human TGFβ3. As to the kind of experiment: Biacore, immobilised TGFβ.
B11: the binding result is listed as “no binding (tested: 50 nM)”.

B12: the binding result is “no binding (tested: 50 nM)”.

The target in the next assay is T3, human TGFβ1. Nature of the assay: Biacore, immobilised TGFβ.
In the case of B11, the binding result was “no binding (tested: 50 nM)”.

As to B12, the binding result was “no binding (tested: 50 nM)”.

The next assay concerns the target T1, human TGFβ2. As to the kind of experiment: Biacore off-rate vs wt GC1008, 50 nM. Summed up: (§3)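 Surface plasmon resonance on a Biacore 3000 measured how fast purified antibody variants dissociated from TGFβ isoforms immobilized at about 100 RU. Variants carried single heavy- or light-chain substitutions and were produced by transient Expi293F transfection with Protein A cleanup. Samples at 50 nM were tested in duplicate, and each variant kd was divided by the wild-type control kd to give fold change.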
The molecule B1 gave a kd var/kd wt of 1.4.

In turn, B2 registered a kd var/kd wt of 1.3.

In turn, B3 returned a kd var/kd wt of 0.8.

The molecule B4 came in with a kd var/kd wt of 1.4.

B5: the kd var/kd wt came to 1.2.

In turn, B6 returned a kd var/kd wt of 0.7.

Turning to B7, the kd var/kd wt was 0.4.

In the case of B8, the kd var/kd wt is 0.9.

In the case of B9, the kd var/kd wt was found to be 1.4.

Take B10: the kd var/kd wt stood at 1.4.

A further assay concerns the target T2, human TGFβ3. As to the kind of experiment: Biacore off-rate vs wt GC1008, 50 nM. A digest of the protocol: as §3
The molecule B1 yielded a kd var/kd wt of 1.1.

On to B2, for which the kd var/kd wt turned out to be 1.7.

Take B3: the kd var/kd wt was found to be 0.7.

Molecule B4 yielded a kd var/kd wt of 1.6.

In turn, B5 displayed a kd var/kd wt of 1.7.

B6 registered a kd var/kd wt of 1.2.

In turn, B7 had a kd var/kd wt of 0.3.

B8 displayed a kd var/kd wt of 1.2.

In turn, B9 came in with a kd var/kd wt of 1.8.

For B10, the kd var/kd wt was 1.4.

A further assay concerns the target T3, human TGFβ1. As to the kind of experiment: Biacore off-rate vs wt GC1008, 50 nM. A digest of the protocol: as §3
Molecule B1 came in with a kd var/kd wt of 1.2.

Molecule B2 came in with a kd var/kd wt of 2.1.

In turn, B3 gave a kd var/kd wt of 0.6.

Molecule B4 yielded a kd var/kd wt of 1.7.

With B5, the kd var/kd wt came out at 2.

Turning to B6, the kd var/kd wt was determined as 1.3.

Molecule B7 registered a kd var/kd wt of 0.7.

Regarding B8, the kd var/kd wt was 1.2.

Molecule B9 had a kd var/kd wt of 2.7.

Regarding B10, the kd var/kd wt was found to be 1.5.
